The values below come from US9505841B2, “Use of an anti-Ang2 antibody” (Samsung Electronics Co., Ltd., priority 2013, dated 2016).

In one assay the target is T1, Ang2-Tie2 binding (Homo sapiens, UniProt O15123).
T1 construct: purchased R&D Systems (hTie2-Fc)
T1 sequence (O15123 19-496): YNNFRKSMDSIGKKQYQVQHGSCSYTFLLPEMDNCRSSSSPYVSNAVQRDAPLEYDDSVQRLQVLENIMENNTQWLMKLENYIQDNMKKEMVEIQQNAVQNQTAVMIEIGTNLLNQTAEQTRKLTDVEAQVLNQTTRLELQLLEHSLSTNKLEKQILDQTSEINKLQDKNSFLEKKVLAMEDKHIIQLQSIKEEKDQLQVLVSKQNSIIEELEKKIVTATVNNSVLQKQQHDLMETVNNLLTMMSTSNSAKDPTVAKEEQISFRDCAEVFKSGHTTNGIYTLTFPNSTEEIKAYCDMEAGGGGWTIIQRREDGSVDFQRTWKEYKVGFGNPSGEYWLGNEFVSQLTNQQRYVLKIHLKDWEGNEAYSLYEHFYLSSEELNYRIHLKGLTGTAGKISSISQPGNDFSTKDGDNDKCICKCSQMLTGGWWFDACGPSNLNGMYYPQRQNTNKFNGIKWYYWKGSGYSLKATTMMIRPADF
In words: Ang2-Tie2 binding competition ELISA. Particulars: antibody 400 nM to 0.001 nM; 400 ng/ml FLAG-tagged hAng2; hTie2-Fc coated plate. How it is done: Ang2-Tie2 binding competition ELISA was conducted using the antibody binding to Ang2 prepared in Example 2-1 above.
More specifically, MaxiSorp™ flat-bottom plate (Nunc) of 96-well was coated with hTie2-Fc (R&D Systems) which is a protein bound with 4 ug (microgram)/ml of Fc of human IgG1. After that, the plate was washed five times with 0.05% (v/v) Tween-20-containing PBS (phosphate buffer saline) and then blocked with 1% (v/v) BSA (bovine serum albumin; Sigma)-containing PBS at a room temperature for 2 hour.
For Ang2:Tie2 competition ELISA, each anti-Ang2 antibody obtained in Example 2 was placed at various concentrations of 400 nM to 0.001 nM into each well coated with the hTie-2/Fc fusion protein along with 1% (v/v) BSA and 400 ng/ml of a FLAG-tagged hAng2 and then, the plate was allowed to react at a room temperature for 2 hours and washed five times with PBST. […] Lastly, 100 ul (microliter) of TMB substrate (Cell Signaling) was added to each well of the plate to induce color development for 3 min. and then, the reaction was ceased by the addition of 100 ul of Stop solution (Cell Signaling) and OD450 values were measured on a plate reader (Molecular Devices). […]
On the technique in general: An ELISA detects its analyte on a solid surface through an enzyme-linked reagent.

Assay [1] concerns blood vessels in tumor tissues. Kind of assay: Immunofluorescence of blood vessels (CD31) and pericytes (PDGFR-β) in LLC tumors. The class given is in vivo, mouse. Particulars: LLC tumors of Example 14; compared to Fc- or 4H10-treated tumors. An excerpt: To examine changes in blood vessels in tumor tissues after treated with antibody, frozen sections were obtained and subjected to immunofluorescence staining using a blood vessel specific marker, CD31 and a pericyte specific marker, PDGFR-β.
In particular, the tumor tissues obtained from Example 14 were frozen using OCT compound (Sakura Finetek), and frozen sections were obtained therefrom using cryostat (Leica). The obtained tumor frozen sections were blocked with 0.3% TBST (TBS mixed with 0.3% Triton X-100) buffer supplemented with 5% goat serum (Jackson Immunoresearch) for one hour. To the blocking buffer, hamster anti-CD31 antibody (1:200, Millipore) and rat anti-PDGF receptor beta antibody (1:200, eBioscience) were added, and the frozen sections were added thereto to be allowed to react for 3 hours. the reacted product was washed with TBS three times, and then, the blocking buffer mixed with cy3-conjugated anti-hamster IgG antibody and FITC-conjugated anti-rat IgG antibody (1:1,000, Jackson Immunoresearch) was added the frozen sections to be allowed to react for 2 hours. After washing with TBS three times, the frozen sections were covered with coverslip (Marenfield) using Fluorescence mounting medium (DAKO). The stained tumor frozen sections were observed using LSM5 (Zeiss) confocal microscope. […]

A further assay concerns Tie2 receptor. Kind of assay: Tie2 phosphorylation in HUVEC cells (immunoprecipitation/immunoblot). The format is cell-based, human. How it is done: As Ang2 induces a change in vascular endothelial cells by binding to a Tie-2 receptor expressed in the vascular endothelial cells to induce the phosphorylation of the receptor and activate it, a test for analyzing an influence of the anti-Ang2 antibody on Tie2 phosphorylation was conducted using a cell-based assay.
For this, HUVEC (ATCC) cells (1×10^6) were cultured in a 100 mm culture dish using EGM-2 (Lonza) media at 37° C. and when they reached 80˜90% confluency, the media were replaced with serum-free media and cultured at 37° C. for 6 to 16 hours. The dish was washed once with PBS and after the replacement with […] sodium orthovanadate (Sigma)-mixed serum free media (Lonza), they were further cultured for 10 min. […]
In addition, referring to the above method, when 60 nM of antibody 10D6 and Ang2 were treated, the phosphorylation level of Tie2 was measured and compared with the case of treating a control antibody (anti-Ang2 antibody (Regeneron) which has MOA of inhibiting binding between Ang2 and Tie2; represented as ‘RG antibody’). After treating with the antibody (10D6 or RG), the blot band density of pTyr and Tie2 was measured using ImageJ software and pTyr/Tie2 ratio was calculated.
(A western blot detects proteins with antibodies after separation by electrophoresis.)

B1: 10D6: mouse anti-Ang2 monoclonal antibody from hybridoma KCLRF-BP-00295; heavy chain variable region SEQ ID NO: 7, light chain variable region SEQ ID NO: 9 (antibody, V domains shown)
VH: DVQLQESGPGLVKPSQSLSLTCTVTGYSITSDYAWNWIRQFPGNKLEWMGYINYSGNTDYNPSLKSRSSITRDTSKNQFFLQLNSVTTGDTATYYCARGNFEGAMDYWGQGTSVTVSS
VL: SIVMTQTPKFLLVSAGDRVTITCKASQSVSNDVAWYQQKPGQSPKLLIYYASNRYPGVPDRFTGSGYGTDFTFTISTVQAEDLAVYFCQQDYSSPWTFGGGTKLEIK
modifications: Synthetic (Heavy chain variable region of an anti-Ang2 antibody); Synthetic (Light chain variable region of anti-Ang2 antibody)
With B1, in the assay with Ang2-Tie2 binding, the “inhibition of Ang2-Tie2 binding” value is “did not inhibit”. In addition, the “blood vessel density and vascular normalization in tumor” value in assay [1] is “decreases the density of blood vessels in tumor and induces vascular normalization”. The “Tie2 phosphorylation effect, fold higher than control antibody RG” value in the assay on Tie2 receptor (60 nM antibody and Ang2) is “about 8.6 fold”. Moreover, in the assay with Tie2 receptor (antibody 600~0.06 nM with 40 nM Ang2, every antibody concentration tested), the “phosphorylation of Tie2 compared to Ang2 treated alone” value was “more strongly induced”.
